{"source": "the nanobody polyreactivity screen of Harvey et al. (2022)"}
{"experiment": "yeast display, Sf9 membrane polyspecificity reagent, FACS + sequencing; frameworks hold sequencing errors", "summary_of_the_method": "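Galactose induction of a Saccharomyces cerevisiae BJ5465 synthetic nanobody display library ran 36–48 hours. The cells were then stained for 1 hour at 4 °C with 10% biotinylated, detergent-solubilized Sf9 membrane reagent, pulled down on streptavidin microbeads and FACS-sorted into low and high (top ~1%) gates on expression and reagent-binding fluorescence. Labels for polyreactivity follow the gate of origin.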"}
{"sequence": "QVQLVESGGGLVQAGGSLRLSCAASGRIFVNNAMGWYRQAPGKERELVAAITGRGTRTYYADSVKGRFTISRDNAKNTVYLQMNSLKPEDTADYYCNAVSTAVIGYEYDYWGQGTQVTVSS", "polyreactivity (PSR sort gate)": "high polyreactivity"}
{"sequence": "QVQLVESGGGLVQAGGSLRLSCAASGRIFVPYVMGWYRQAPGKDRELVASISDSDTSTYYADSVKGRFTISRDNAKNNVYLQMNSMKPEDTAVYYCNVDYWGQGTQVTVSS", "polyreactivity (PSR sort gate)": "low polyreactivity"}
{"sequence": "QVQLVESGGGLVQAGGSLRLSCAASGRIFVQNAMGWYRQAPGKERELVAAINWSVGSTYYADSVKGRFTISRDNAKNTVYLQMNSLKPEDTAVYYCAAGNLYYAEYDYWGQGTQVTVSS", "polyreactivity (PSR sort gate)": "low polyreactivity"}
{"sequence": "QVQLVESGGGLVQAGGSLRLSCAASGRIFVRYAMGWYRQAPGKEREWVAVSTTGGARTRDADSVKGRFTISRDNAKNSVYLQMNSLKPEDTGVYYCAAQTYSQRWYDYWGQGTQVTVSS", "polyreactivity (PSR sort gate)": "high polyreactivity"}
{"sequence": "QVQLVESGGGLVQAGGSLRLSCAASGRIFVSHAMGWYRQAPGKERALVAGITWTSGSTYYADSVKGRFTISRDNAKNTVYLQMKSLKPEDTAVYYCAAEYWYGNAFDYWGLGTQVTVSS", "polyreactivity (PSR sort gate)": "low polyreactivity"}
{"sequence": "QVQLVESGGGLVQAGGSLRLSCAASGRIFVSNAMGWYRQAPGKERELVAAISKSGGRTYYADSVKGRFTISRDNAKNTVYLQMNSLKPEDTAVYYCNAVISLPGNKYDYWGQGTQVTVSS", "polyreactivity (PSR sort gate)": "high polyreactivity"}
{"sequence": "QVQLVESGGGLVQAGGSLRLSCAASGRIFVSYAMGWYRQAPGKERELVAAISNSGSRTYYADSVKGRFTISRDNAKNTVYLQMNSLKPEDTAVYYCAAGQGAGVDYWGQGTQVTVSS", "polyreactivity (PSR sort gate)": "high polyreactivity"}
{"sequence": "QVQLVESGGGLVQAGGSLRLSCAASGRIFVSYTMGWYRQAPGKERELVAAIRGTGSTYYADSVKGRFTISRDNAKNTVYLQMNSLKPEDTAVYYCNADYLRWDIWYWHGYDYWGQGTQVTVSS", "polyreactivity (PSR sort gate)": "high polyreactivity"}
{"sequence": "QVQLVESGGGLVQAGGSLRLSCAASGRIFVSYVMGWYRPAPGKEREFVAAIRRSGSSTYYADSVKGRFTISRDNAKNTVYLQINRLKPEDTAVYYCAAYQRSRTLRRYDYWGQGTQVTVSS", "polyreactivity (PSR sort gate)": "high polyreactivity"}
{"sequence": "QVQLVESGGGLVQAGGSLRLSCAASGRIFVTNAMGWYRQAPGKERELVAAISYRGGRTYYADSVKGRFTISRDNAKNTVYLQMNSLKPEDTAVYYCNAVTRWPFDYWGQGTQVTVSS", "polyreactivity (PSR sort gate)": "high polyreactivity"}
{"sequence": "QVQLVESGGGLVQAGGSLRLSCAASGRIFVTNTMGWYRQAPGKERELVAAIDNSAGSTYYADSVKGRFTISRDNAKNTVYLQMNSLKPEDTAVYYCAADYPPYYGYGYWGQGTQVTVSS", "polyreactivity (PSR sort gate)": "low polyreactivity"}
{"sequence": "QVQLVESGGGLVQAGGSLRLSCAASGRIFVVYAMGWYRQAPGKERELVAAITYGGGSTHYADSVKGRFTISRDNAKNTVYLQMNSLKPEDTAVYYCAADLFYHSYGYEYWGQGTQVTVSS", "polyreactivity (PSR sort gate)": "low polyreactivity"}
{"sequence": "QVQLVESGGGLVQAGGSLRLSCAASGRIFVVYVMGWYRQAPGKEREFVAAITWGGGNTYYADSVKGRFTISRDNAKNTVYLQMNSLIPEDTAVYYCAAAPRKYVWMDYWGQGTQVTVSS", "polyreactivity (PSR sort gate)": "low polyreactivity"}
{"sequence": "QVQLVESGGGLVQAGGSLRLSCAASGRIFVVYVMGWYRQATGKEREFVAAITWGGGNTYYADSVKGRFTISRDNAKNTVYLQMNSLKPEDTAVYYCAAAPRKYVWMDYWGQGTQVTVSS", "polyreactivity (PSR sort gate)": "low polyreactivity"}
{"sequence": "QVQLVESGGGLVQAGGSLRLSCAASGRIFVWNAMGWYRQAPGKERELVAAITSSGGNTYYADSVKGRFTISRDNAKNTVYLQMNSLKPEDTAVYYCAARSSSRTQATTRYGYWGQGTQVTVSS", "polyreactivity (PSR sort gate)": "high polyreactivity"}
{"sequence": "QVQLVESGGGLVQAGGSLRLSCAASGRIFVYNAMGLYRQAPGKERELVAAISSTGSTNYADSVKGRFTISRDNAKNTVYLQMNSLKPEDTAVYYFAAVYYFYGYSGYYGQYDYWGQGTQVTVSS", "polyreactivity (PSR sort gate)": "low polyreactivity"}
{"sequence": "QVQLVESGGGLVQAGGSLRLSCAASGRIFVYNTMGWYRQAPGKERELVAAIDWSGGSKYYADSVKGRFTISRDNAKNTVYLQMNSLKPEDTAVYYCNADSLIGMDYWGQGTQVTVSS", "polyreactivity (PSR sort gate)": "high polyreactivity"}
{"sequence": "QVQLVESGGGLVQAGGSLRLSCAASGRIFVYNVMGRYRQAPGKERDLVAAISWGTGSTYADSVKGRFTISRDNAKNTVYLQMNSLKPEDTAVYYCAADSFIPPYDHWGLGTQVTVSS", "polyreactivity (PSR sort gate)": "low polyreactivity"}
{"sequence": "QVQLVESGGGLVQAGGSLRLSCAASGRIFVYNVMGWYRQAPGKERELVAAISWGTGSTYADSVKGRFTISRDNAKNTVYLQMNSLKPEDTAVYYCAADSFIPPYDHWGQGTQVTVSS", "polyreactivity (PSR sort gate)": "low polyreactivity"}
{"sequence": "QVQLVESGGGLVQAGGSLRLSCAASGRIFVYYAMGWYRQAPGKEMELVASISYSGASTYYADSVKGRFTISRDNAKNTVYLQMNSLKPEDTAVYYCNTDGDDFFHVIYDYWGQGTQVTVSS", "polyreactivity (PSR sort gate)": "low polyreactivity"}
{"sequence": "QVQLVESGGGLVQAGGSLRLSCAASGRIFVYYAMGWYRQAPGKEREFVAAISSRDDSTYYADSVKGRFTISRDNAKNTVYLQMNSLKPEDTAVYYCAADWRLGVGYDYWGQGSQVTVSS", "polyreactivity (PSR sort gate)": "low polyreactivity"}
{"sequence": "QVQLVESGGGLVQAGGSLRLSCAASGRIFVYYPMGWYRQAPGIERELVAAINAGGSTNYADSVKGRFTISRDNAKNTVYLQMNSLKPEDTAVYYCAAVRRSRYSYRGYYWGQGTQVTVSS", "polyreactivity (PSR sort gate)": "high polyreactivity"}
{"sequence": "QVQLVESGGGLVQAGGSLRLSCAASGRIFVYYTMGWYRQAPGKERELVAAITGSGGSTYYADSVKGRFTISRDNAKNTVYLQMNSLKPEDTAVYSCAVYDSYRKFKYWGQGTQVTVSS", "polyreactivity (PSR sort gate)": "high polyreactivity"}
{"sequence": "QVQLVESGGGLVQAGGSLRLSCAASGRIFWANAMGWYRQAPGKERELVAAINRRTGITYYADSVKGRFTISRDNAKNTVYLQMNSLNPEDTAVYYCAAARGKDGYSGQGTQVTVSS", "polyreactivity (PSR sort gate)": "high polyreactivity"}
{"sequence": "QVQLVESGGGLVQAGGSLRLSCAASGRIFWANAMGWYRQAPGKERELVAAISNSGVSTYYADSVKGRFTISRDNAKHTVYLQMNSLKPEDTAVYYCAADRYRKYYYWGQGTLVTVSS", "polyreactivity (PSR sort gate)": "high polyreactivity"}
{"sequence": "QVQLVESGGGLVQAGGSLRLSCAASGRIFWAYAMGWYRQAPGKERELVAGITFTGGRTYYADSVKGRFTISRDNAKNTVYLQMNSLKPEDTAVYYCAAAGLDVGRKDRDGYWGQGTQVTVSS", "polyreactivity (PSR sort gate)": "low polyreactivity"}
{"sequence": "QVQLVESGGGLVQAGGSLRLSCAASGRIFWGNALGWYRQAPGKVRELVAAITRRGGTTFYADSVKGRFTISRDNAKNTVYLQKNSLKPEDTAGYYCAARRYCQYDGYDSGGQGTQVTVSS", "polyreactivity (PSR sort gate)": "high polyreactivity"}
{"sequence": "QVQLVESGGGLVQAGGSLRLSCAASGRIFWGNAMGWYRQAPGKERELVAAISSSGGSTYYADSVKGRFTISRDNAKNTVYLQMNSLKPEDTAVYYCAARYPTYYYRYDYWGQGTQVTVSS", "polyreactivity (PSR sort gate)": "high polyreactivity"}
{"sequence": "QVQLVESGGGLVQAGGSLRLSCAASGRIFWGYAMGWYRQAPGKERELVARITSGGDTYYADSVKGRFTISRDNAKNTVYLQMNSLKPEDTAVYYCNADVGTEWDNYPEVDYWGQGTQVTVSS", "polyreactivity (PSR sort gate)": "low polyreactivity"}
{"sequence": "QVQLVESGGGLVQAGGSLRLSCAASGRIFWGYDMGWYRQAPGKERELVAAINWSGGITNYADSVKGRFTISRDNAKNTVYLQMNSLKPEDTAVYYCAADTYWHRYYWGQGTQVTVSS", "polyreactivity (PSR sort gate)": "high polyreactivity"}
{"sequence": "QVQLVESGGGLVQAGGSLRLSCAASGRIFWPYAMGWYRPAPGKERELVAAITSGGSTYYADSVKGRFTISRDNAKNTVYLQMNSLKPEVTAVYYCAKRSSGVSVPVAYGGIKRYNSWGQGTQVTVSS", "polyreactivity (PSR sort gate)": "low polyreactivity"}
{"sequence": "QVQLVESGGGLVQAGGSLRLSCAASGRIFWPYAMGWYRQAPGKERELVAAISRGGSTYYADSVKGRFTISRDNAKNTVYLQINSLKPEDTAVYYCAVAFRGSYRPAYYYWRQGTQVTVSS", "polyreactivity (PSR sort gate)": "high polyreactivity"}
{"sequence": "QVQLVESGGGLVQAGGSLRLSCAASGRIFWPYAMGWYRQAPGKERELVAAISWGDGTTYYADSVKGRFTISRDNAKNTVYLQMNSLKPEDTAVYYCAVELWPDYVTDIRYYDGFDYWGQGTQVTVSS", "polyreactivity (PSR sort gate)": "low polyreactivity"}
{"sequence": "QVQLVESGGGLVQAGGSLRLSCAASGRIFWPYAMGWYRQAPGKERELVAAITSGGSTYYADSVKGRFTISRDNAKNTVYLQMNSLKPEDTAVYYCNAKLRRHYDHLYDYWGQGTQVTVSS", "polyreactivity (PSR sort gate)": "low polyreactivity"}
{"sequence": "QVQLVESGGGLVQAGGSLRLSCAASGRIFWRYAMGWYRQAPGKERELVAGITYSGGRTYYADSVKGRFTISRDNAKNTVYLQMNSLTPEDTAVYYCAARGYFDALFDYWGQGTQVTVSS", "polyreactivity (PSR sort gate)": "low polyreactivity"}
{"sequence": "QVQLVESGGGLVQAGGSLRLSCAASGRIFWRYAMGWYRQAPGKERQLVAGITYSGGRTYYADSVKGRFTISRDNAKNTVYLQMNSLKPEDTAVYYCAARGYFDALFDYWGQGTQVTVSS", "polyreactivity (PSR sort gate)": "low polyreactivity"}
{"sequence": "QVQLVESGGGLVQAGGSLRLSCAASGRIFWSNAMGWYRQAPGKERELVAAISYSGGSTYYADSVKGRFTISRDNAKNTVYLQMNSLKPEDTAVYYCAALFRPRVHRFDYWGQGTQVTVSS", "polyreactivity (PSR sort gate)": "low polyreactivity"}
{"sequence": "QVQLVESGGGLVQAGGSLRLSCAASGRIFWSYAMGWYRPAPGKERELVAAISYSGGGTYYADSVKGRFTISRDNAKNTVYLQMNSLKPEDTAVYYCAAETYYAPYDYWGQGTQVTVSS", "polyreactivity (PSR sort gate)": "high polyreactivity"}
{"sequence": "QVQLVESGGGLVQAGGSLRLSCAASGRIFWTYAMGWYRQAPGKERELVASITWSGGSTYYADSVKGRFTISRDNAKNTVYLQMNSLKPEDTAVYYCHTDVLAPYDSGYWGQGTQVTVSS", "polyreactivity (PSR sort gate)": "low polyreactivity"}
{"sequence": "QVQLVESGGGLVQAGGSLRLSCAASGRIFWYYAMGGYRQAPGKEREFVATINTSGGSTYYADSLKGRFTISRDYARSTVCLQMNSLTPEDTAVYYCYAACRYYRTEYYSWGQGTQVTVSS", "polyreactivity (PSR sort gate)": "low polyreactivity"}
{"sequence": "QVQLVESGGGLVQAGGSLRLSCAASGRIFWYYAMGWSRQAPGKERELVATISSRSGSTYYADSVKGRFTISRDNAKNTVYLQMNSLKPEDTAVYYCAAGTPYYLGYRHNTGLFDYWGQGTQVTVSS", "polyreactivity (PSR sort gate)": "high polyreactivity"}
{"sequence": "QVQLVESGGGLVQAGGSLRLSCAASGRIFWYYAMGWYRQAPGKERELVAAISWSGGTTYYADSVKGRFTISRDNAKNTVYLQMNSLKPEDTAVYYCAAVFQYGYGEDYWGQGTQVTVSS", "polyreactivity (PSR sort gate)": "high polyreactivity"}
{"sequence": "QVQLVESGGGLVQAGGSLRLSCAASGRIFWYYAMGWYRQAPGKERELVARITSGGRTYYADSVKGRFTISRDNAKNTVYLQMNSLKPEDTAVYYCARRGRKAYGYWGQGTQVTVSS", "polyreactivity (PSR sort gate)": "high polyreactivity"}
